Each block holds one molecule with its values, some of them ahead of it.
Legend:
[1] = molecular target: T1, 人PRDX4 (存在于癌细胞的细胞表面上) (human) (UniProt Q13162); assay: flow cytometry on ES-2 cells, isotype control
T1 sequence: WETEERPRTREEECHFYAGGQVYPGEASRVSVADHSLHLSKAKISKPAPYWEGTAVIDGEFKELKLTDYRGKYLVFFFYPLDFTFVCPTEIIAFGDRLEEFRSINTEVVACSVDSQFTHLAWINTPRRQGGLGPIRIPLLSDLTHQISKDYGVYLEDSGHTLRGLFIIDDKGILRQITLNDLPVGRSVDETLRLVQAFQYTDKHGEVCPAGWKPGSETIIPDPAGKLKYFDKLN

PRDX4 (内源性, 细胞裂解物中) = molecular target: T2, PRDX4 (内源性, 细胞裂解物中) (human, UniProt Q13162 38-271); assay: immunoprecipitation with 11F2 beads from ES-2 lysate, western blot
T2 construct: Endogenous PRDX4 in RIPA lysates of human cell lines (ES-2 and others), precipitated with 11F2 beads; also called 内源性PRDX4
T2 sequence: T1 sequence

[2] = molecular target: T1, 人PRDX4 (存在于癌细胞的细胞表面上) (human); assay: flow cytometry on ES-2w cells transfected with control siRNA
[3] = molecular target: T1, 人PRDX4 (存在于癌细胞的细胞表面上) (human); assay: flow cytometry on ES-2 cells transfected with PRDX4-specific siRNA (population 4BC_KO)
[4] = molecular target: T1, 人PRDX4 (存在于癌细胞的细胞表面上) (human); assay: flow cytometry on ES-2 cells with PRDX4-specific siRNA (4BC_KO) against control siRNA cells

平均值 (mean fluorescence) [1]: 159
Molecule: 同种型抗体 (antibody)

binding result (PRDX4 (内源性, 细胞裂解物中)): binds
平均值 (mean fluorescence) [2]: 1910
平均值 (mean fluorescence) [3]: 874
percent of 11F2 binding against control siRNA cells [4]: 50%
B1: 抗体11F2 (antibody, V domains shown)
VH: QVQLQQSGAELVKPGTSVKLSCKASGYTFSTHHMHWIKETTGQGLEWIGIINPGNGGTKYNVKFKGKATLTVDSSSSTAFMQLGSLTPEDSAVYYCARGNPASFDYWGQGVMVTVSS
VL: DIQMTQSPSFLSASVGDRVTINCKASQNIYKYLNWYQQKLGEAPKRLIYNTNNLETDIPSRFSGSGSGTDYTFTISSLQPEDFATYFCLQHSNFPFTFGSGTKLEIKR
notes: Monoclonal antibody detected with goat anti-rat IgG secondary antibody, so rat constant regions; also called PRDX4特异性抗体11F2; PRDX4抗体11F2

Reference: patent publication CN116981688A (HELMHOLTZ ZENTRUM MUENCHEN DEUTSCHES FORSCHUNGSZENTRUM FUR …, dated 2023)
